Results reported in patent US20170198040A1 (Novartis, published 2017).

Assays:
[1] = molecular target: T1, MW82 (huCD32a H131) (human, UniProt P12318); experiment: flow cytometry on stable CHO cells expressing huCD32a H131 (MW82); hIgG1 [N297A] antibody, GMFI
T1 sequence (receptor, looked up): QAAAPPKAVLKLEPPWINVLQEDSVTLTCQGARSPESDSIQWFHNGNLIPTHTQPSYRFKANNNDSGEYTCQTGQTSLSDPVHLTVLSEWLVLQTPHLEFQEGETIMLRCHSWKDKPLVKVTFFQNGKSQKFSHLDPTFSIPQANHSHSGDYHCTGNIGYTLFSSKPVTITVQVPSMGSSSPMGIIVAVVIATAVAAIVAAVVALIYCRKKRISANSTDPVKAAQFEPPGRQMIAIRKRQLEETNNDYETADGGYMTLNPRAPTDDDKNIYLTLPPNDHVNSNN
Protocol: (§1) HuCD32b and huCD32a have high degree of sequence homology. […] CHO cells were collected following detachment with PBS containing 2 mM EDTA and pelleted. Cell pellets were washed once in PBS and suspended in FACS Buffer (PBS1× containing 2% BSA, 2 mM EDTA and 0.1% NaN3), counted and suspended at 0.25×10⁶ cells per ml. 50'000 cells/well (200 μl) were then dispensed in V-bottomed 96 well plates. Plates were spun for 5 min at 1600 rpm and the supernatant discarded. […] After 3 successive washes with FACS buffer, cells were suspended in 50 μl FACS buffer containing a 1/100 dilution of the F(ab′)2 anti-human F(ab′)2-PE (Jackson Immunoresearch#109-116-097) and further incubated 30 min at 4° C. Cells were washed twice and suspended in 200 μl FACS buffer and acquired on a FACS Canto II (acquisition of 5000 cells in the live cell gate). The Geometric Mean Fluorescence (GMFI in the PE channel) was used as a measure of the binding intensity of each antibody.

[2] = molecular target: T2, huCD64 (Fc gamma RI) expressed on stable CHO cells (human, UniProt P12314 16-374); experiment: flow cytometry on stable CHO cells expressing huCD64; hIgG1 [N297A] antibody, GMFI; the text ascribes this binding to the Fc portion
T2 construct: whole, on cells; also called CHO-huCD64
T2 sequence (P12314 16-374): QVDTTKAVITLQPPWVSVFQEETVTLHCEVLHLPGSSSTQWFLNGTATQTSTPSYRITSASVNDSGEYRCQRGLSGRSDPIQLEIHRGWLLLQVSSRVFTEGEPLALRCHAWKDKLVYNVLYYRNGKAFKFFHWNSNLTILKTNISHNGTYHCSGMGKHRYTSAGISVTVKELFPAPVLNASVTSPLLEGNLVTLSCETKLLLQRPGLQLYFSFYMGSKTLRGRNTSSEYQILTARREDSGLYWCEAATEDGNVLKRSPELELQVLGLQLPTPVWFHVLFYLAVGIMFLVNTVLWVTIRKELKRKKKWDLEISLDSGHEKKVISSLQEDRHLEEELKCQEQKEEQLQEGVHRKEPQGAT
Protocol: The binding of huCD32b specific antibodies was evaluated by flow cytometry using stable CHO cell lines expressing the low affinity human CD16 variants (i.e huCD16a or huCD16b variants) and the high affinity huCD64 (FcγRI). CHO cells transfected with huCD16a variants were also transfected with the common Fcγ chain in order to allow for surface expression. CHO cells were collected following detachment with PBS containing 2 mM EDTA and pelleted. Cell pellets were washed once in PBS and suspended in FACS Buffer (PBS1× containing 2% BSA, 2 mM EDTA and 0.1% NaN3), counted and suspended at 0.25×10⁶ cells per ml. 50'000 cells/well (200 μl) were then dispensed in V-bottomed 96 well plates. Plates were spun for 5 min at 1600 rpm and the supernatant discarded. […] After 3 successive washes with FACS buffer, cells were suspended in 50 μl FACS buffer containing a 1/100 dilution of the F(ab′)2 anti-human F(ab′)2-PE (Jackson Immunoresearch#109-116-097) and further incubated 30 min at 4° C. Cells were washed twice and suspended in 200 μl FACS buffer and acquired on a FACS Canto II (acquisition of 5000 cells in the live cell gate). The Geometric Mean Fluorescence (GMFI in the PE channel) was used as a measure of the binding intensity of each antibody.

[3] = molecular target: T3, human CD32b expressed endogenously on human cells (human, UniProt P31994 43-310); experiment: flow cytometry on BJAB cells; biotinylated hIgG1 [N297A] antibody, streptavidin-PE, GMFI
T3 construct: whole, on cells; The background says that CD32b1 is the form on lymphoid cells and CD32b2 the form on myeloid cells; also called CD32b on primary human B cells, plasma cells, macrophages, BJAB, KARPAS422 and Daudi cells
T3 sequence (looked up): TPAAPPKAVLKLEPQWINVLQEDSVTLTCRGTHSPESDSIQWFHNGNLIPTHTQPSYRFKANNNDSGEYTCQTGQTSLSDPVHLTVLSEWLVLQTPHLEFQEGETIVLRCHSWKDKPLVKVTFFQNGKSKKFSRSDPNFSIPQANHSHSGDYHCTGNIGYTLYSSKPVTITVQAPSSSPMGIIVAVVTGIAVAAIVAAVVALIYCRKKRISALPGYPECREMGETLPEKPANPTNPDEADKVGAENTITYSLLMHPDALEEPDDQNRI
Protocol: The binding of huCD32b specific antibodies to the BJAB cell line was evaluated by flow cytometry. BJAB cells were collected and suspended in FACS Buffer (PBS1× containing 2% BSA, 2 mM EDTA), counted and suspended at 0.25×10⁶ cells per ml. 50'000 cells/well (200 μl) were then dispensed in V-bottomed 96 well plates. Plates were spun for 5 min at 1500 rpm and the supernatant discarded. […] Biotinylation of antibodies was performed using the Lightning-Link biotin conjugation kit (Type A) from Innova Biosciences (Cat. No 704-0010) according to the supplier's instructions. After 2 successive washes with FACS buffer, cells were suspended in 50 μl FACS buffer containing a 1/500 dilution of Streptavidin-PE (Invitrogen 521388) and further incubated for 20 min at 4° C. Cells were washed twice and suspended in 200 μl FACS buffer and acquired on a FACS Fortessa. The Geometric Mean Fluorescence (GMFI in the PE channel) was used as a measure of the binding intensity of each antibody.

[4] = molecular target: T4, WT human CD32b1 expressed on stably transfected cells (human, UniProt P31994 43-310); experiment: flow cytometry on stable CHO cells expressing huCD32b (MW83); hIgG1 [N297A] antibody, GMFI
T4 construct: also called huCD32b; WT CD32b
T4 sequence: T3 sequence (looked up)
Protocol: as §1

binding result [1]: no binding (tested: 1000 nM)
binding result [2]: binds
binding affinity (printed 'BJABs:') [3]: 110 nM
EC50 (read off the curve) [4]: ~30 nM
B1: NOV1219 (antibody, human IgG1, lambda, N297A)
heavy chain: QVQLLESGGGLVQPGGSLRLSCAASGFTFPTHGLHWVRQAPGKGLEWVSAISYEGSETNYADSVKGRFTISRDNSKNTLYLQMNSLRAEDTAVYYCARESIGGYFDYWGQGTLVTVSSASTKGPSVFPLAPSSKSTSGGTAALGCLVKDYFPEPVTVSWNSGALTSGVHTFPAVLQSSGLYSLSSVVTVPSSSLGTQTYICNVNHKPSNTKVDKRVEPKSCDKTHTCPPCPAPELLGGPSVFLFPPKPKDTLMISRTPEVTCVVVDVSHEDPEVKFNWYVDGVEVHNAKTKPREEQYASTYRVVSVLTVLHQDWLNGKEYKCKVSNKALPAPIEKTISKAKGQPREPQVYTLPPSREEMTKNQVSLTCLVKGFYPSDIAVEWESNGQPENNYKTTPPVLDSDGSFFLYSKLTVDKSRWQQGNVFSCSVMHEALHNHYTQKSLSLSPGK
light chain: SYELTQPLSVSVALGQTARITCSGDALGKNTVSWYQQKPGQAPVLVIYDDTDRPSGIPERFSGSNSGNTATLTISRAQAGDEADYYCSSTDLSTVVFGGGTKLTVLGQPKAAPSVTLFPPSSEELQANKATLVCLISDFYPGAVTVAWKADSSPVKAGVETTTPSKQSNNKYAASSYLSLTPEQWKSHRSYSCQVTHEGSTVEKTVAPTECS
notes: also called NOV1219_N297A; NOV1219 on a human IgG1 [N297A] scaffold
